Experimental data as given in paper PMC10873205 (2024).

Target: UBE2A (UniProt P49459 1-152)
Experiment: ITC

Kd: 1.47 µM
B1: UBR4_(xtal) Ser4930Arg (domain or fragment)
chain: AIQHPGTQVLIGTDSIPNLHKLEQVSSDEGIGTLAENLLEALREHPDVNKKIDAARRETRAEKKRMAMAMRQKALGTLGMTTNEKGQVVTKTALLKQMEELIEEPGLTCCICREGYKFQPTKVLGIYTFTKRVALEEMENKPRKQQGYSTVSHFNIVHYDCHLAAVRLARGREEWESAALQNANTKCNGLLPVWGPHVPERAFATCLARHNTYLQECTGQREPTYQLNIHDIKLLFLRFAMEQSFSADTGGGGRESNIHLIPYIIHTVLYVLNTTRATSREEKNLQGFLEQPKEKWVESAFEVDGPYYFTVLALHILPPEQWRATRVEILRRLLVTSQARAVAPGGATRLTDKAVKDYSAYRSSLLFWALVDLIYNMFKKVPTSNTEGGWSCSLAEYIRHNDMPIYEAADKALKTFQEEFMPVETFSEFLDVAGLLSEITDPESFLKDLLNSVP
